US20230279079A1 (published 2023)
Changes are numbered by the printed parent chain.

B1: FI-1C (antibody, V domains shown)
VH: EVQLVESGGGLVKPGGSLRLSCAASGFTFSDYYMSWIRQAPGKGLEWVSYISSSGSTIYYADSVKGRFTISRDNAKNSLYLQMNSLRAEDTAVYYCARRSNRFLIAFDIWGQGTMVTVSS
VL: QSALTQPASVSGSPGQTITISCTGTSSDVGGYNYVSWYQQHPGKAPKLMIYEVSNRPSGVSNRFSGSKSGNTASLTISGLQAEDEADYYCSSYTSSSTLVVFGGGTKLTVP
B2: FD 5D (antibody, V domains shown)
VH: EVQLVESGGGLVQPGGSLRLSCAASGFTFSSYSMNWVRQAPGKGLEWVSYISSSSSTIYYADPVKGRFTISRDNAKNSLYLQMNSLRAEDTAVYYCASPGGITAAGTSVLFGYYGMDVWGQGTMVTVSS
VL: not shown
B3: EZ 7A (antibody, V domains shown)
VH: EVQLVESGAEVKKPGESLKISCKGSGYSFTSYWIGWVRQMPGKGLEWMGIIYPGDSDTRYSPSFQGQVTISADKSISTAYLQWSSLKASDTAMYYCARGWVYRGFPYYGMDVWGQGTMVTVSS
VL: QSALTQPRSVSGSPGQSVTISCTGTSSDVGGYNYVSWYQQHPGKAPKLMIYDVSKRPSGVPDRFSGSKSGNTASLTISGLQAEDEADYYCCSYAGSYTLVFGGGTKLTVL
B4: FI 3A (antibody, V domains shown)
VH: EVQLLESGGGLIQPGGSLRLSCAASGFTVSSNYMSWVRQAPGKGLEWVSVIYSGGSTYYADSVKGRFTISRDNSKNTLYLQMNSLRAEDTAVYYCARDHVRPGMNIWGQGTMVTVSS
VL: not shown
B5: FJ 10B (antibody, V domains shown)
VH: QVQLVQSGAEVKKPGESLRISCKGSGYSFTSYWISWVRQMPGKGLEWMGRIDPSDSYTNYSPSFQGHVTISADKSISTAYLQWSSLKASDTAMYYCARLDPRYGPDYYGMDVWGQGTTVTVSS
VL: AIRMTQSPSSLSASVGDRVTITCRASQSISSYLNWYQQKPGKAPKLLIHAASSLQSGVPSRFSGSGSGTDFTLTMSSLQPEDFATYYCQQSYSTPLTFGGGTKVEIR
B6: FI 1C (antibody, V domains shown)
VH: B1 VH
VL: B1 VL
B7: FM 7B (antibody, V domains shown)
VH: EVQLVQSGAEVKKPGASVKVSCKASGYTFTSYAMHWVRQAPGQRLEWMGWINTGNGNTKYSQKFQGRVTITRDTSASTAYMELSSLRSEDTAVYYCARDPTYCSSTSCYPFSWFDPWGQGTLVTVSS
VL: NFMLTQPPSVSVAPGQTARITCGGNNIGSKSVHWYQQKPGQAPVLVVYDDSDRPSGIPERFSGSNSGNTATLTISRVEAGDEADYYCQVWDSTGDHSWVFGGGTKLTVL
B8: FN 12A (antibody, V domains shown)
VH: QVQLVQSGAEVKKPGSSVKVSCKASGGTFSSYAISWVRQAPGQGLEWMGRIIPILGIANYAQKFQGRVTITADKSTSTAYMELSSLRSEDTAVYYCARSGCSSTSCPSNLYYYYYGMDVWGQGTTVTVSS
VL: QSVLTQPPSVSAAPGQKVTISCSGSSSNIGNNYVSWYQQLPGTAPKLLIYDNNKRPSGIPDRFSGSKSGTSATLGITGLQTGDEADYYCGTWDSSLSALVFGGGTKLTVL
B9: FD 11A (antibody, V domains shown)
VH: EVQLVESGGGVVQPGRSLRLSCAASGFTFSSYGMHWVRQAPGKGLEWVAVIWYDGSNKYYADSVKGRFTISRDNSKNTLYLQMNSLRAEDTAVYYCAKGPDILTGYYNYYYYGMDVWGQGTMVTVSS
VL: QSVLTQPPSVSGAPGQRVTISCTGSSSNIGAGYDVHWYQQLPGTAPKLLIYGNSNRPSGVPDRFSGSKSGTSASLAITGLQAEDEADYYCQSYDSSLSGFYVVFGGGTKLTVL
B10: FI 4A (antibody, V domains shown)
VH: EVQLVESGGGLVKPGGSLRLSCAASGFTFSRFSMNWVRQAPGKGLEWVSSISSSGSYIYFADSVKGRFTISRDNAKNSLYLQMNSLRAEDTAIYYCATYLFGDSHTYWGQGTLVTVSS
VL: QSVLTQPHSVSESPGKTVTISCTGSSGSIASNYVQWYQQRPGSAPTTVIYEDNQRPSGVPDRFSGSIDSSSNSASLTISGLKTEDEADYYCQSYDSSNLHWVFGGGTKLTVL
B11: FD 7D (antibody, V domains shown)
VH: EVQLVESGAEVKKPGESLRISCKGSGYSFTSYWISWVRQMPGKGLEWMGRIDPSDSYTNYSPSFQGHVTISADKSISTAYLQWSSLKASDTAMYYCARHSDCSSTSCYFVDAFDIWGQGTMVTVSS
VL: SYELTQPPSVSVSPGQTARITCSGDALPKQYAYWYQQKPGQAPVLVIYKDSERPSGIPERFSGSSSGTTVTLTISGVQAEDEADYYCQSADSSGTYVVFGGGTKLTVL
B12: FG 12C (antibody, V domains shown)
VH: EVQLVESGGGLVQPGRSLRLSCAASGFTFDDYAMHWVRQAPGKGLEWVSGISWNSGSIGYADSVKGRFTISRDNAKNSLYLQMNSLRAEDTALYYCAKDMRVHDYGDYYFDYWGQGTLVTVSS
VL: SYELTQPPSVSVAPGKTARITCGGNNIGSKSVHWYQQKPGQAPVLVIYYDSDRPSGIPERFSGSNSGNTATLTISRVEAGDEADYYCQVWDSSSDHPVFGGGTKLTVL
B13: FN 8C (antibody, V domains shown)
VH: QVQLVESGGGVVQPGRSLRLSCAASGFTFSSYGMHWVRQAPGKGLEWVAVISYDGSNKYYADTVKGRFTISRDNSKNTLYLQMNSLRAEDTAVYYCARERTYYDILTGYRHYYGMDVWGQGTTVTVSS
VL: B12 VL with K16Q, I47V, Y49D, P97W
B14: FB 1E (antibody, V domains shown)
VH: EVQLVESGAEVKKPGESLKISCQGSGYRFNSYWIAWVRQMPGKGLEWMGSIFPTDSDIRYNPSFQGQVTISADKSISIAYLQWSSLKASDTAIYYCARHWASMVRGVIRASHYYGMDVWGQGTTVTVSS
VL: QSVLTQPPSASGSPGQSVTISCSGASSDIGDYNYVSWYQQLPGKAPKLLIYEVTKRPSGVPDRFSGSKSGNTASLTVSGLQADDEADYYCSSYAFGGSDIRVFGGGTKLAVL
B15: FB 9D (antibody, V domains shown)
VH: B14 VH with E1Q, I58V, I78F
VL: B14 VL with S2P, D31K, I100T, A110T
B16: FN 2C (antibody, V domains shown)
VH: EVQLLESGGGVVQPGRSLRLSCAASGFNFNNYGMHWVRQAPGKGLEWVATISYEGSKKFYVDSVKGRFTISKDNSKNTLYLQMNSLRVDDTAFYYCAKRREIFWLGEPPLSDAFDFWGQGTMVTVSS
VL: QSVLTQPPSVSGAPGQRVTISCTGSGSNIGAGYDVHWYQFLPGTAPQLLIYGNNNRPSGVPDRFSGSKSGTSASLAITGLQAEDEADYYCQSYDSSLSGSVFGGGTKLTVL
B17: FD 7C (antibody, V domains shown)
VH: QLQLQESGPGLVKPSETLSLTCTVSGGSISSYYWSWIRQPPGKGLEWIGYIYYSGSTNYNPSLKSRVTISVDTSKNQFSLKLSSVTAADTAVYYCARDYRFGELFGRFAWFDPWGQGTLVTVSS
VL: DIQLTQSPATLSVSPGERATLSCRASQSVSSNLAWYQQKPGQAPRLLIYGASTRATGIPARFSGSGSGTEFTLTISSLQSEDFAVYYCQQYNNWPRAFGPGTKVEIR
B18: FD 11D (antibody, V domains shown)
VH: EVQLVESGGGVVQPGRSLRLSCAASGFTFSSYGMHWVRQAPGKGLEWVAVISYDGSNKYYADSVKGRFTISRDNSKNTLYLQMNSLRAEDTAVYYCAKEGAGSGWYRHHKPGYYFDYWGQGTLVTVSS
VL: not shown
B19: FD 10A (antibody, V domains shown)
VH: EVQLVESGGGLVQPGGSLRLSCAASGFTFSSYWMHWVRQAPGKGLVWVSRINSDGSSTSYADSVKGRFTISRDNAKNTLYLQMNSLRAEDTAVYYCANMAFDIWGQGTMVTVSS
VL: not shown
B20: FD 8B (antibody, V domains shown)
VH: EVQLLESGAEVKKPGASVKVSCKVSGYTLTELSMHWVRQAPGKGLEWMGGFDPEDGETIYAQKFQGRVTMTEDTSTDTAYMELSSLRSEDTAVYYCATAAAINCSSTSCYYYYYYYGMDVWGQGTTVTVSS
VL: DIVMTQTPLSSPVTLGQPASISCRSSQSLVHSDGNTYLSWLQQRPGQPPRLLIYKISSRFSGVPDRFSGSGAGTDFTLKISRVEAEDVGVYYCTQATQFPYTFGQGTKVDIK
B21: FD 11C (antibody, V domains shown)
VH: EVQLLESGPGLVKPSETLSLTCTVSGGSISSSSYYWGWIRQPPGKGLEWIGSIYYSGSTYYNPSLKSRVTISVDTSKNQFSLKLSSVTAADTAVYYCAREYYYGSETKKYYYYYGMDVWGQGTTVTVSS
VL: not shown
B22: FD 1E (antibody, V domains shown)
VH: EVQLLESGGGLVKPGGSLRLSCAASGFTFSSYSMNWVRQAPGKGLEWVSSISSSSSYIYYADSVKGRFTISRDNAKNSLYLQMNSLRAEDTAVYYCASLAAAGPETYYYYGMDVWGQGTMVTVSS
VL: not shown
B23: FD 11E (antibody, V domains shown)
VH: B22 VH with L5V
VL: not shown
B24: FJ 1C (antibody, V domains shown)
VH: QVQLQESGPGLVKPSETLSLTCTVSGYSISSGYYWGWIRQPPGKGLEWIGSIYHSGSTYYNPSLKSRVTISVDTSKNQFSLKLSSVTAADTAVYYCARDKALLWFGELFTNLFDYWGQGTLVTVSS
VL: QSALTQPASVSGSPGQSITISCTGTSSDVGGYNYVSWYQQHPGKAPKLMIYEVSNRPSGVSNRFSGSKSGNTASLTISGLQAEDEANYYCSSYTSSSTLVFGGGTKLTVL

Each binder was assayed against RBD-VLP (SARS-CoV-2, UniProt P0DTC2 340-538) (assay: not given).
Work on B1 yielded an IC50 of 23 nM.

The binders below were run against T1, SARS-CoV-2 spike receptor binding domain (RBD) (SARS-CoV-2, UniProt P0DTC2 319-541) (assay: flow).
Binder B2 has a Kd of 0.93 nM.
B3 gave a Kd of 11.4 nM.
Binder B4 has a Kd of 3.83 nM.
B5 showed a Kd of 3.73 nM.

Biological target: T1, SARS-CoV-2 spike receptor binding …
Assay: flow
Remark: another data set of the same source
Binder B6 has a Kd of 12.2 nM.
B7 gave a Kd of 0.64 nM.
For B8, the Kd was 1.12 nM.
Binder B9 has a Kd of 0.75 nM.
B10 gave a Kd of 7.9 nM.

These binders were tested against SARS-CoV-2 spike extracellular domain (SARS-CoV-2, UniProt P0DTC2 14-1213) (assay: ELISA).
Work on B11 yielded a Kd of 64 nM.
Binder B6 has a Kd of 1.18 nM.
In the case of B7, the Kd is reported as 0.51 nM.
B2 was tested, and the Kd was 0.58 nM.
Work on B12 yielded a Kd of 2.54 nM.
B13 gave a Kd of 63.9 nM.
B8 gave a Kd of 0.38 nM.
In the case of B14, the Kd is reported as 0.41 nM.
In the case of B15, the Kd is reported as 0.29 nM.
With B16 the Kd was 0.3 nM.
In the case of B3, the Kd is reported as 1.08 nM.
In the case of B17, the Kd is reported as 0.18 nM.
With B9 the Kd was 0.4 nM.
Binder B4 has a Kd of 6.61 nM.
B18 gave a Kd of 3.54 nM.
With B10 the Kd was 0.41 nM.
Binder B19 has a Kd of 0.42 nM.
Binder B20 has a Kd of 10.4 nM.
With B5 the Kd was 7.57 nM.
B21 was tested, and the Kd was 0.98 nM.
With B22 the Kd was 20.5 nM.
With B23 the Kd was 19.5 nM.
Work on B24 yielded a Kd of 0.57 nM.
